Experiment [1] concerns the target SARS-CoV-2 Spike WT (Wuhan-Hu-1 reference strain) (SARS-CoV-2, Wuhan-Hu-1, UniProt P0DTC2). As to the kind of experiment: flow cytometry on cells.
The target of experiment [2] is SARS-CoV-2 Spike on CEM.NKr-Spike cells (SARS-CoV-2, Wuhan-Hu-1 (assumed for the …, UniProt P0DTC2)). As to the kind of experiment: flow cytometry on cells.
The target of experiment [3] is SARS-CoV-2 S1 domain C-His tag protein, from HEK293 cells (SARS-CoV-2, Wuhan-Hu-1 (strain not …, UniProt P0DTC2)). The experiment can be described thus: SPR.

B1: CV3-13 (hIgG1) (antibody, V domains shown)
VH: QVQLQQSGPGLVKPSQTLSLTCTVAGGSISSGTYYWSWIRQPAGKGLEWIGRIYTSGSANYNPSLKSRVTISVDTSKNQFSLRLSSVTAEDTAVYYCAREYSSSYYYFYYMDVWGKGTTVTVSS
VL: AIRMTQSPSSLSASVGDRVTITCQASQDISNYLNWYQQKPGKAPKLLIYVASNLETGVPSRFSGSGFGTDFTFTISSLQPEDIATYYCQQFDNLPYTFGQGTKLEIK
Turning to B1, the binding result in experiment [1], in experiment [2] and in experiment [3] was “binds” throughout.

B2: CV3-13 LALA (hIgG1) (antibody, V domains shown)
VH: QVQLQQSGPGLVKPSQTLSLTCTVAGGSISSGTYYWSWIRQPAGKGLEWIGRIYTSGSANYNPSLKSRVTISVDTSKNQFSLRLSSVTAEDTAVYYCAREYSSSYYYFYYMDVWGKGTTVTVSS
VL: AIRMTQSPSSLSASVGDRVTITCQASQDISNYLNWYQQKPGKAPKLLIYVASNLETGVPSRFSGSGFGTDFTFTISSLQPEDIATYYCQQFDNLPYTFGQGTKLEIK
B2: the binding result in experiment [1] and in experiment [2] was “binds” each time.

B3: CV3-13 […] (hIgG1) (antibody, V domains shown)
VH: QVQLQQSGPGLVKPSQTLSLTCTVAGGSISSGTYYWSWIRQPAGKGLEWIGRIYTSGSANYNPSLKSRVTISVDTSKNQFSLRLSSVTAEDTAVYYCAREYSSSYYYFYYMDVWGKGTTVTVSS
VL: AIRMTQSPSSLSASVGDRVTITCQASQDISNYLNWYQQKPGKAPKLLIYVASNLETGVPSRFSGSGFGTDFTFTISSLQPEDIATYYCQQFDNLPYTFGQGTKLEIK
Turning to B3, the binding result in experiment [1] and in experiment [2] was “binds” in each case.

(Values after PMC8786652 (Cell reports, 2022).)
